Data published in publication PMC9981700 (2023).

Biological target: T1, Notch2 (Leu26–Gln530), recombinant protein (UniProt Q04721 26-530)
T1 chain: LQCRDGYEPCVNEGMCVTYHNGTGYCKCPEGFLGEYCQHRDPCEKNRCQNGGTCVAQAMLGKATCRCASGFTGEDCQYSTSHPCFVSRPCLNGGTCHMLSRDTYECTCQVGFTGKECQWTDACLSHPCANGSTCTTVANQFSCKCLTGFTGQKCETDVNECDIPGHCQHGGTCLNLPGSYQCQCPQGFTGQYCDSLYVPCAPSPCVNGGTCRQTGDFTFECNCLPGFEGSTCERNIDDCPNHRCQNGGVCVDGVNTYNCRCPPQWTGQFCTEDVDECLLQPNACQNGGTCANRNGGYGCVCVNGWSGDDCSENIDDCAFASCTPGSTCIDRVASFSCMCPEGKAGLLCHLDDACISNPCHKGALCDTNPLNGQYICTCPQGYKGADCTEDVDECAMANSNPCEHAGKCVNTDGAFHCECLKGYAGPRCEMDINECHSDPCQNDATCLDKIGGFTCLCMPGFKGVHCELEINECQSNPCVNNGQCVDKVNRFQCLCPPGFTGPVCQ
Assay: BLI

Kd: 1.22 nM
B1: Fibulin2 (Ala28–Leu1184), recombinant protein (natural protein)
chain: APRQDCTGVECPPLENCIEEALEPGACCATCVQQGCACEGYQYYDCLQGGFVRGRVPAGQSYFVDFGSTECSCPPGGGKISCQFMLCPELPPNCIEAVVVADSCPQCGQVGCVHAGHKYAAGHTVHLPPCRACHCPDAGGELICYQLPGCHGNFSDAEEGDPERHYEDPYSYDQEVAEVEAATALGGEVQAGAVQAGAGGPPAALGGGSQPLSTIQAPPWPAVLPRPTAAAALGPPAPVQAKARRVTEDSEEEEEEEEEREEMAVTEQLAAGGHRGLDGLPTTAPAGPSLPIQEERAEAGARAEAGARPEENLILDAQATSRSTGPEGVTHAPSLGKAALVPTQAVPGSPRDPVKPSPHNILSTSLPDAAWIPPTREVPRKPQVLPHSHVEEDTDPNSVHSIPRSSPEGSTKDLIETCCAAGQQWAIDNDECLEIPESGTEDNVCRTAQRHCCVSYLQEKSCMAGVLGAKEGETCGAEDNDSCGISLYKQCCDCCGLGLRVRAEGQSCESNPNLGYPCNHVMLSCCEGEEPLIVPEVRRPPEPAAAPRRVSEAEMAGREALSLGTEAELPNSLPGDDQDECLLLPGELCQHLCINTVGSYHCACFPGFSLQDDGRTCRPEGHPPQPEAPQEPALKSEFSQVASNTIPLPLPQPNTCKDNGPCKQVCSTVGGSAICSCFPGYAIMADGVSCEDINECVTDLHTCSRGEHCVNTLGSFHCYKALTCEPGYALKDGECEDVDECAMGTHTCQPGFLCQNTKGSFYCQARQRCMDGFLQDPEGNCVDINECTSLSEPCRPGFSCINTVGSYTCQRNPLICARGYHASDDGTKCVDVNECETGVHRCGEGQVCHNLPGSYRCDCKAGFQRDAFGRGCIDVNECWASPGRLCQHTCENTLGSYRCSCASGFLLAADGKRCEDVNECEAQRCSQECANIYGSYQCYCRQGYQLAEDGHTCTDIDECAQGAGILCTFRCLNVPGSYQCACPEQGYTMTANGRSCKDVDECALGTHNCSEAETCHNIQGSFRCLRFECPPNYVQVSKTKCERTTCHDFLECQNSPARITHYQLNFQTGLLVPAHIFRIGPAPAFTGDTIALNIIKGNEEGYFGTRRLNAYTGVVYLQRAVLEPRDFALDVEMKLWRQGSVTTFLAKMHIFFTTFAL
